Assay [1] deals with T1, HER2 (on HER2高表达细胞株 N87 / BT474) (UniProt P04626 23-1255, limits assumed). Put plainly: cell-based or functional assay.
Assay [2] has as its target T1, HER2 (on HER2高表达细胞株 N87 / BT474). Put plainly: cell-based or functional assay. This is another data set of the same source.
In another assay the target is T2, HER2-DI-DIII-L295P/H296N (Homo sapiens (Human), UniProt P04626 23-510).
T2 construct: also called HER2-DI-DIII-L295/H296N
Nature of the assay: ELISA, plate coated with HER2-DI-DIII-L295P/H296N. (An ELISA detects its analyte on a solid surface through an enzyme-linked reagent.)

The target of assay [3] is T3, HER2-DI-DIII-V483A/D480A/E485A (Homo sapiens (Human), UniProt P04626 23-513).
T3 chain: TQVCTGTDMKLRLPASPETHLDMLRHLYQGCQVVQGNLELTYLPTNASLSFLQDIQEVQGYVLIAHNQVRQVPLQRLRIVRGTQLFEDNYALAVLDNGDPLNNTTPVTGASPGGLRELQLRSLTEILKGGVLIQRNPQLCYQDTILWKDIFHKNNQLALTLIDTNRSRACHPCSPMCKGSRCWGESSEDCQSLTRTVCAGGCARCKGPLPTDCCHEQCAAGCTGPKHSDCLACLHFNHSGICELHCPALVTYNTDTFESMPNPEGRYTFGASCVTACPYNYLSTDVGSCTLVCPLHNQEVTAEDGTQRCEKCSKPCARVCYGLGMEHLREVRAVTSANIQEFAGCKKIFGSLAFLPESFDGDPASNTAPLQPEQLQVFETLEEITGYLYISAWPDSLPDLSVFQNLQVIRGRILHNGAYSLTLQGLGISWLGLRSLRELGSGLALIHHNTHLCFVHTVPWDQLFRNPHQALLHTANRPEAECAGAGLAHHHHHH
Nature of the assay: ELISA, plate coated with HER2-DI-DIII-V483A/D480A/E485A.

In the next assay the target is T4, HER2-DI-DIII-his (Homo sapiens (Human), UniProt P04626 23-510).
T4 construct: also called HER2-ECD-DI-DIII
Put plainly: ELISA, plate coated with HER2-DI-DIII-his, detection with HRP-anti human IgG Fc.

B1: 抗HER2抗体612 (antibody, V domains shown)
VH: QVQLVQSGAEVKKPGASVKVSCKGSGYTFTDYAIHWVRQAPGQSLEWIGVFSIYYENINYNQKFKGRATMTVDKSTSTAYMELRSLRSDDTAVYYCARRDGGTINYWGQGTLVTVSS
VL: DVVMTQSPLSLPVTLGQPASISCRSSQSLVHSNGNTYLHWYQQRPGQSPRLLIYKVSNRFSGVPDRFSGSGSGTDFTLKISRVEAEDVGVYFCSQSTHIPWTFGQGTKVEIK
notes: No visible text gives the full heavy chain; also called 19H6-Hu
Regarding B1, the “最大抑制率(%), N87细胞增殖 (CCK8)” value in assay [1] amounted to 41.8%. The “最大抑制率(%), BT474细胞增殖 (CCK8)” value in assay [2] turned out to be 47.1%. The half-maximal effective concentration (EC50) – broadly, the concentration that produces a half-maximal response – was found to be 0.027 nM in the assay with HER2-DI-DIII-L295P/H296N and 0.043 nM in the assay with HER2-DI-DIII-his. Besides, the binding result in assay [3] was “no binding (tested: 最高浓度为10nM)”.

The values above are taken from patent CN114805590A (SUNSHINE GUOJIAN PHARMACEUTICAL SHANGHAI CO LTD, dated 2022).
